Laboratory results from patent publication US20140072980A1 (Regeneron, published 2014).
Each block holds one binder with its values, some of them ahead of it.

What was measured:
[1] = target: IgG1 Fc/Fc monospecific antibody; experiment: flow cytometry sandwich: antibody displayed on CHO cells by CSCP ScFv*-FcγR, hFc block, detected with Alexa 488-labeled Ab2; signal needs both capture and detection
Method: (§1) Conversely, the Ab6-derived anti-Fc*-specific ScFv*-FcγR surface capture system was tested for its ability to detect and enrich for cells that produce bispecific antibodies. […] The Ab6-derived anti-Fc*-specific ScFv*-FcγR surface capture cell line was able to detect and distinguish the bispecific antibody (Fc/Fc*) over the Fc*/Fc* or Fc/Fc monospecific antibodies using the Fc-specific Ab2 as the detection molecule (Table 4). The FcγR surface capture cell line was not able to distinguish between the Fc/Fc*, Fc*/Fc*, and Fc/Fc IgG4 species.

[2] = target: IgG1 Fc/Fc* bispecific antibody; experiment: as above
Method: as §1

[3] = target: IgG1 Fc*/Fc* monospecific antibody; experiment: as above
Method: as §1

[4] = target: IgG4 Fc/Fc* bispecific antibody; experiment: flow cytometry sandwich: antibody displayed on CHO cells by CSCP FcγR, detected with labeled Ab2; signal needs both capture and detection
[5] = target: IgG1 Fc/Fc monospecific antibody; experiment: as above
[6] = target: IgG4 Fc*/Fc* monospecific antibody; experiment: as above
[7] = target: IgG1 Fc/Fc* bispecific antibody; experiment: as above
[8] = target: IgG4 Fc/Fc monospecific antibody; experiment: as above
[9] = target: IgG4 Fc/Fc* bispecific antibody; experiment: flow cytometry sandwich: antibody displayed on CHO cells by CSCP ScFv-FcγR, hFc block, detected with FITC-labeled Ab6; signal needs both capture and detection
Method: (§2) The Ab2-derived anti-Fc-specific ScFv-FcγR surface capture system was tested for its ability to detect and enrich for cells that produce bispecific antibodies. To assess the ability to detect bispecific antibodies, which harbor the 95R/435R-96F/436F substitution in one of the CH3 domains (designated Fc*), various antibodies were expressed in the Ab2-derived anti-Fc-specific ScFv-FcγR surface capture cell line, using hFc as the blocking molecule, and a FITC-labeled Ab6 anti-Fc* antibody (e.g., mAb with HC of SEQ ID NO:40, and LC of SEQ ID NO:41) as the detection molecule. The Ab2-derived anti-Fc-specific ScFv-FcγR surface capture cell line was able to detect and distinguish the bispecific antibody (Fc/Fc*) over any Fc*/Fc* or Fc/Fc monospecific antibodies using the Fc*-specific Ab6 as the detection molecule (Table 4). The wildtype FcγR surface capture cell line was not able to distinguish between the Fc/Fc*, Fc*/Fc*, and Fc/Fc IgG4 species, since FcγR is unable to bind, or binds at very low affinity to IgG4.

[10] = target: IgG1 Fc/Fc monospecific antibody; experiment: as above
Method: as §2

[11] = target: IgG4 Fc*/Fc* monospecific antibody; experiment: as above
Method: as §2

[12] = target: IgG1 Fc/Fc* bispecific antibody; experiment: as above
Method: as §2

[13] = target: IgG4 Fc/Fc monospecific antibody; experiment: as above
Method: as §2

[14] = target: IgG1 Fc*/Fc* monospecific antibody; experiment: as above
Method: as §2

[15] = target: IgG1 Fc/Fc monospecific antibody; experiment: flow cytometry sandwich: antibody displayed on CHO cells by CSCP FcγR, detected with FITC-labeled Ab6; signal needs both capture and detection
[16] = target: IgG1 Fc/Fc* bispecific antibody; experiment: as above
[17] = target: IgG1 Fc*/Fc* monospecific antibody; experiment: as above
human Fc* homodimer = target: T1, human Fc* homodimer (human); experiment: SPR (Biacore 2000), antibody captured on anti-mouse-Fc surface, Fc dimer injected, 1:1 fit
T1 construct: also called Fc*/Fc*; human ΔAdpFc polypeptide
Method: (§3) Measurements to determine binding affinities and kinetic constants were made on a Biacore 2000 instrument. Antibodies (each of Ab1-Ab8) were captured onto an anti-mouse-Fc sensor surface (Mab capture format), and human Fc (SEQ ID NO 26) homodimers, human Fc* homodimers (SEQ ID NO:42), or Fc/Fc* heterodimers were injected over the surface. Kinetic association (kₐ) and dissociation (kd) rate constants were determined by processing and fitting the data to a 1:1 binding model using Scrubber 2.0 curve fitting software.

human Fc homodimer = target: T2, human Fc homodimer (human, UniProt P01861 120-325 = IgG part); experiment: SPR (Biacore 2000), antibody captured on anti-mouse-Fc surface, Fc dimer injected
T2 construct: His 95 and Tyr 96 (IMGT) in CH3; also called Fc/Fc; hFc
T2 sequence (P01861 other isoform, or with tags, fused parts or gaps limits assumed): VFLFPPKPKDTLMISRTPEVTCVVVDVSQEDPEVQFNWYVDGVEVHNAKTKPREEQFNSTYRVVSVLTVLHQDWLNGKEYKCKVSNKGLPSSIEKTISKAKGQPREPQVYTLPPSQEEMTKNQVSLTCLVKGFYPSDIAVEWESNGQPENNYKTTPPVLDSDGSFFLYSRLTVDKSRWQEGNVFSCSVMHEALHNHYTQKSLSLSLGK
Method: as §3

Mean Fluorescence Intensity (MFI) [1]: 10 MFI
Mean Fluorescence Intensity (MFI) [2]: 150 MFI
Mean Fluorescence Intensity (MFI) [3]: 10 MFI
Mean Fluorescence Intensity (MFI) [4]: 200 MFI
Mean Fluorescence Intensity (MFI) [5]: 350 MFI
Mean Fluorescence Intensity (MFI) [6]: 200 MFI
Mean Fluorescence Intensity (MFI) [7]: 500 MFI
Mean Fluorescence Intensity (MFI) [8]: 200 MFI
B1: Ab2 (antibody, V domains shown)
VH: QLQQSGAELAKPGASVKMSCKASGYTFTNYWIHWEKQRPEQGLEWIGYINPNTGHTEYNQKFKDKATLTADRSSSTAYMQLSSLTSEDSAVYFCARTYSGSSHFDYWGQGTTL
VL: DIVMTQTPVSLPVSLGDQASISCRSSQSLVHNNGDTFLHWYLQKPGQSPKLLIYKVSNRFSGVPDRFSGSGSGTDFTLKISRVEAEDLGVYFCSQTTLIPRTFGGGTKLEI
notes: From Velocimmune mice, captured by anti-mouse-Fc in SPR; also called Fc-specific Ab2; Ab2 anti-Fc antibody

Mean Fluorescence Intensity (MFI) [9]: 500 MFI
Mean Fluorescence Intensity (MFI) [10]: 15 MFI
Mean Fluorescence Intensity (MFI) [11]: 15 MFI
Mean Fluorescence Intensity (MFI) [12]: 500 MFI
Mean Fluorescence Intensity (MFI) [13]: 15 MFI
Mean Fluorescence Intensity (MFI) [14]: 15 MFI
Mean Fluorescence Intensity (MFI) [15]: 200 MFI
Mean Fluorescence Intensity (MFI) [16]: 200 MFI
Mean Fluorescence Intensity (MFI) [17]: 200 MFI
Kd (human Fc* homodimer): 0.679 nM
koff (human Fc* homodimer): 0.000593 s⁻¹
kon (human Fc* homodimer): 873000 M⁻¹ s⁻¹
t½ (human Fc* homodimer): 19 min
binding result (human Fc homodimer): no binding
B2: Ab6 (antibody, mouse IgG2a, kappa, V domains shown)
VH: EVQLVESGGAIVKPGGSHRVSCEASGFTFSNAWMSWVRQAPGRGLEWVGRILSKTDGGTTDYAAPVKDRFTISRDDSKNMLFLQMDSLKIEDTAVYFCTTADFWSAYSSDYWGQGTLVTVSS
VL: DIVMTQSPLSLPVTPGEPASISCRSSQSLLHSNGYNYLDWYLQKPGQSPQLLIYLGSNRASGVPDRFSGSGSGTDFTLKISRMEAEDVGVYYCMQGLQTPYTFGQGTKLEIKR
notes: also called Fc*-specific Ab6; Ab6 anti-Fc* antibody
